Reference: publication PMC9482650, “Quantitative fragmentomics allow affinity mapping of interactomes” (Nature Communications, 2022)

T1: APBA2_1, Q99767
T1 sequence (Q99767 563-664, limits assumed, looked up): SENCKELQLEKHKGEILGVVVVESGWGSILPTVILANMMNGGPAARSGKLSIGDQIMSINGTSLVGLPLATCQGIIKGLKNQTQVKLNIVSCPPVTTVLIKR

T2: APBA3_1, O96018
T2 sequence (O96018 389-490, limits assumed, looked up): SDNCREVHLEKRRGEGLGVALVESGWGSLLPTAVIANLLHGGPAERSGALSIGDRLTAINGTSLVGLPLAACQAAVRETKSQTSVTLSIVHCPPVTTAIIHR

T3: ARHGEF11, O15085
T3 sequence (O15085 42-136, limits assumed, looked up): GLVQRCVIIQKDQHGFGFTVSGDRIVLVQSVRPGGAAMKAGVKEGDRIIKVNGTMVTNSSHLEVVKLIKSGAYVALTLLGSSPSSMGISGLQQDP

T4: CARD11, Q9BXL7
T4 sequence (Q9BXL7 662-765, limits assumed, looked up): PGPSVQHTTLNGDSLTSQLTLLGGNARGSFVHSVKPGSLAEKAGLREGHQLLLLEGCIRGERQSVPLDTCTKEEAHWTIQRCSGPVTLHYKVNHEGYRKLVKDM

T5: DVL3, Q92997
T5 sequence (Q92997 244-331, limits assumed, looked up): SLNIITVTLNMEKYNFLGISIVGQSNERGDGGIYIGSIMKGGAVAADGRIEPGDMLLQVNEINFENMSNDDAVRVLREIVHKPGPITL

T6: FRMPD1, Q5SYB0
T6 sequence (Q5SYB0 52-145, limits assumed, looked up): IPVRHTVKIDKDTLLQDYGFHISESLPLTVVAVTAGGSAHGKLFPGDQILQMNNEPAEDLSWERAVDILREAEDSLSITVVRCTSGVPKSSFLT

T7: GRIP1_2, Q9Y3R0
T7 sequence (Q9Y3R0 145-248, limits assumed, looked up): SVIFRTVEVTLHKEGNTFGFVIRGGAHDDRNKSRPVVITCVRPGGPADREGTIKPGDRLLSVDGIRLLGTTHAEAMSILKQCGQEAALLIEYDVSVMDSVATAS

T8: MPP6, Q9NZW5
T8 sequence (Q9NZW5 125-219, limits assumed, looked up): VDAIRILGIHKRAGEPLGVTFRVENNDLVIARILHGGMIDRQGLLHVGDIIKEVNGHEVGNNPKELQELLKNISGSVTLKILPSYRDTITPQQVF

T9: NHERF3_1, Q5T2W1
T9 sequence (Q5T2W1 4-100, limits assumed, looked up): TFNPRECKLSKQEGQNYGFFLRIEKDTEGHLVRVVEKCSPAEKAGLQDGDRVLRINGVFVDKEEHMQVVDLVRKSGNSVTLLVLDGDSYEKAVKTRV

T10: PCLO, Q9Y6V0
T10 sequence (Q9Y6V0 4491-4600, limits assumed, looked up): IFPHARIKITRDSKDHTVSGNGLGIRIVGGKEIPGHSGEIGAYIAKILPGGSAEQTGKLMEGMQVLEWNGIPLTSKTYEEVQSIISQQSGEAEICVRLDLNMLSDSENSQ

T11: SNTA1, Q13424
T11 sequence (Q13424 82-180, limits assumed, looked up): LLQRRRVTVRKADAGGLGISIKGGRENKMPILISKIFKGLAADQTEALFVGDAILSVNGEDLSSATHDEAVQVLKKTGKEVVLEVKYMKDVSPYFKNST

T12: TIAM2, Q8IVF5
T12 sequence (Q8IVF5 885-986, limits assumed, looked up): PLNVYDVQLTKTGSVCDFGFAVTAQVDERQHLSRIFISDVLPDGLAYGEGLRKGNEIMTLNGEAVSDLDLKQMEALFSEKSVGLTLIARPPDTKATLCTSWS

T13: TJP3_3, O95049
T13 sequence (O95049 375-456, limits assumed, looked up): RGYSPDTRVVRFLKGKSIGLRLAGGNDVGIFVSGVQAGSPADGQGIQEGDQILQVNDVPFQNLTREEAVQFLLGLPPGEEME


Each binder was assayed against T1, APBA2_1, Q99767 (assay: holdup assay). Conditions: plain residues with an end cap or a label only (N-terminal biotin on a linker: ado-ado).
Set-up: key: below the threshold = too weak to quantify, mostly under pKd 3.1 to 4

Row | Binder | pKd
1 | AEDEEIQTKM [UNC93A, Q86WB7] | below the threshold
2 | SVISRREWYV [NECTIN3, Q9NQS3] | below the threshold

What follows are binders tested against T2, APBA3_1, O96018 (assay: holdup assay). Conditions: plain residues with an end cap or a label only (N-terminal biotin on a linker: ado-ado).
Set-up: key: below the threshold = too weak to quantify, mostly under pKd 3.1 to 4

Row | Binder | pKd
3 | AEDEEIQTKM [UNC93A, Q86WB7] | below the threshold
4 | SVISRREWYV [NECTIN3, Q9NQS3] | below the threshold

What follows are binders tested against T3, ARHGEF11, O15085 (assay: holdup assay). Conditions: plain residues with an end cap or a label only (N-terminal biotin on a linker: ado-ado).
Set-up: key: below the threshold = too weak to quantify, mostly under pKd 3.1 to 4

Row | Binder | pKd
5 | AEDEEIQTKM [UNC93A, Q86WB7] | below the threshold
6 | SVISRREWYV [NECTIN3, Q9NQS3] | 4.55

Each binder was assayed against ARHGEF12, Q9NZN5-2 (assay: holdup assay). Conditions: plain residues with an end cap or a label only (N-terminal biotin on a linker: ado-ado).
Chain of ARHGEF12, Q9NZN5-2 (Q9NZN5 other isoform, or with tags, fused parts or gaps): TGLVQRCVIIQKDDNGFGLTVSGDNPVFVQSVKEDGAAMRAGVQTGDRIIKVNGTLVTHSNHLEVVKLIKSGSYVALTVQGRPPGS
Set-up: key: below the threshold = too weak to quantify, mostly under pKd 3.1 to 4

Row | Binder | pKd
7 | AEDEEIQTKM [UNC93A, Q86WB7] | below the threshold
8 | SVISRREWYV [NECTIN3, Q9NQS3] | 3.64

Each binder was assayed against T4, CARD11, Q9BXL7 (assay: holdup assay). Conditions: plain residues with an end cap or a label only (N-terminal biotin on a linker: ado-ado).
Set-up: key: below the threshold = too weak to quantify, mostly under pKd 3.1 to 4

Row | Binder | pKd
9 | AEDEEIQTKM [UNC93A, Q86WB7] | below the threshold
10 | SVISRREWYV [NECTIN3, Q9NQS3] | below the threshold

What follows are binders tested against CASK, O14936 (assay: holdup assay). Conditions: plain residues with an end cap or a label only (N-terminal biotin on a linker: ado-ado).
Chain of CASK, O14936 (O14936 487-570): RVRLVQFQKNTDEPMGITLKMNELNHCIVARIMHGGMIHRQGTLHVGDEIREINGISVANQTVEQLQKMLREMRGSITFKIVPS
Set-up: key: below the threshold = too weak to quantify, mostly under pKd 3.1 to 4

Row | Binder | pKd
11 | AEDEEIQTKM [UNC93A, Q86WB7] | below the threshold
12 | SVISRREWYV [NECTIN3, Q9NQS3] | 3.75

Each binder was assayed against DLG5_1, Q8TDM6 (assay: holdup assay). Conditions: plain residues with an end cap or a label only (N-terminal biotin on a linker: ado-ado).
Chain of DLG5_1, Q8TDM6 (Q8TDM6 617-713): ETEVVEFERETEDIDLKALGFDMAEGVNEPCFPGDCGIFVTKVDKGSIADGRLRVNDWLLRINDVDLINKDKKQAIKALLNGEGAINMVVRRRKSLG
Set-up: key: below the threshold = too weak to quantify, mostly under pKd 3.1 to 4

Row | Binder | pKd
13 | AEDEEIQTKM [UNC93A, Q86WB7] | below the threshold
14 | SVISRREWYV [NECTIN3, Q9NQS3] | below the threshold

These binders were tested against T5, DVL3, Q92997 (assay: holdup assay). Conditions: plain residues with an end cap or a label only (N-terminal biotin on a linker: ado-ado).
Set-up: key: below the threshold = too weak to quantify, mostly under pKd 3.1 to 4

Row | Binder | pKd
15 | AEDEEIQTKM [UNC93A, Q86WB7] | below the threshold
16 | SVISRREWYV [NECTIN3, Q9NQS3] | 4.69

These binders were tested against T6, FRMPD1, Q5SYB0 (assay: holdup assay). Conditions: plain residues with an end cap or a label only (N-terminal biotin on a linker: ado-ado).
Set-up: key: below the threshold = too weak to quantify, mostly under pKd 3.1 to 4

Row | Binder | pKd
17 | AEDEEIQTKM [UNC93A, Q86WB7] | below the threshold
18 | SVISRREWYV [NECTIN3, Q9NQS3] | below the threshold

These binders were tested against T7, GRIP1_2, Q9Y3R0 (assay: holdup assay). Conditions: plain residues with an end cap or a label only (N-terminal biotin on a linker: ado-ado).
Set-up: key: below the threshold = too weak to quantify, mostly under pKd 3.1 to 4

Row | Binder | pKd
19 | AEDEEIQTKM [UNC93A, Q86WB7] | below the threshold
20 | SVISRREWYV [NECTIN3, Q9NQS3] | below the threshold

These binders were tested against GRIP2_3, Q9C0E4 (assay: holdup assay). Conditions: plain residues with an end cap or a label only (N-terminal biotin on a linker: ado-ado).
Chain of GRIP2_3, Q9C0E4 (Q9C0E4 238-339): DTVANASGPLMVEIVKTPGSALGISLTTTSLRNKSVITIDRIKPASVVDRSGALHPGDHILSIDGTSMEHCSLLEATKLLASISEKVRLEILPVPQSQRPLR
Set-up: key: below the threshold = too weak to quantify, mostly under pKd 3.1 to 4

Row | Binder | pKd
21 | AEDEEIQTKM [UNC93A, Q86WB7] | below the threshold
22 | SVISRREWYV [NECTIN3, Q9NQS3] | below the threshold

Each binder was assayed against GRIP2_6, Q9C0E4 (assay: holdup assay). Conditions: plain residues with an end cap or a label only (N-terminal biotin on a linker: ado-ado).
Chain of GRIP2_6, Q9C0E4 (Q9C0E4 648-740): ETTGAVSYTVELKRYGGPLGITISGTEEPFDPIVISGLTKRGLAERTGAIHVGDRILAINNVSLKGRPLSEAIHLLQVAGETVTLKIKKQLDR
Set-up: key: below the threshold = too weak to quantify, mostly under pKd 3.1 to 4

Row | Binder | pKd
23 | AEDEEIQTKM [UNC93A, Q86WB7] | below the threshold
24 | SVISRREWYV [NECTIN3, Q9NQS3] | 4.81

The binders below were run against HTRA2, O43464 (assay: holdup assay). Conditions: plain residues with an end cap or a label only (N-terminal biotin on a linker: ado-ado).
Chain of HTRA2, O43464 (O43464 355-458): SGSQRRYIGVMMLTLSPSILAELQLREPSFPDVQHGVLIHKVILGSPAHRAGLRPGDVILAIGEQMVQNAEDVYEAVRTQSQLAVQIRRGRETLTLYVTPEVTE
Set-up: key: below the threshold = too weak to quantify, mostly under pKd 3.1 to 4

Row | Binder | pKd
25 | AEDEEIQTKM [UNC93A, Q86WB7] | below the threshold
26 | SVISRREWYV [NECTIN3, Q9NQS3] | 4.6

These binders were tested against IL16_1, Q14005 (assay: holdup assay). Conditions: plain residues with an end cap or a label only (N-terminal biotin on a linker: ado-ado).
Chain of IL16_1, Q14005 (Q14005 210-306): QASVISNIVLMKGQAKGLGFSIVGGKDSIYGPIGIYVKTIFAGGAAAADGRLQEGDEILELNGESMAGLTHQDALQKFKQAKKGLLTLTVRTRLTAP
Set-up: key: below the threshold = too weak to quantify, mostly under pKd 3.1 to 4

Row | Binder | pKd
27 | AEDEEIQTKM [UNC93A, Q86WB7] | below the threshold
28 | SVISRREWYV [NECTIN3, Q9NQS3] | 3.88

What follows are binders tested against Inadl_6, Q8NI35 (assay: holdup assay). Conditions: plain residues with an end cap or a label only (N-terminal biotin on a linker: ado-ado).
Chain of Inadl_6, Q8NI35 (Q8NI35 1058-1167): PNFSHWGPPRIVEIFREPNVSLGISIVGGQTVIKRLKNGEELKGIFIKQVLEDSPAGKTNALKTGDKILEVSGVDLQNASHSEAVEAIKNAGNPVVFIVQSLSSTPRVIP
Set-up: key: below the threshold = too weak to quantify, mostly under pKd 3.1 to 4

Row | Binder | pKd
29 | AEDEEIQTKM [UNC93A, Q86WB7] | below the threshold
30 | SVISRREWYV [NECTIN3, Q9NQS3] | below the threshold

These binders were tested against MAGI2_6, Q86UL8 (assay: holdup assay). Conditions: plain residues with an end cap or a label only (N-terminal biotin on a linker: ado-ado).
Chain of MAGI2_6, Q86UL8 (Q86UL8 1141-1229): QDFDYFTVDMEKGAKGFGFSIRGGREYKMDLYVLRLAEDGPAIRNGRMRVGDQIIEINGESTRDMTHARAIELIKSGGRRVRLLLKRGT
Set-up: key: below the threshold = too weak to quantify, mostly under pKd 3.1 to 4

Row | Binder | pKd
31 | AEDEEIQTKM [UNC93A, Q86WB7] | below the threshold
32 | SVISRREWYV [NECTIN3, Q9NQS3] | 3.76

What follows are binders tested against T8, MPP6, Q9NZW5 (assay: holdup assay). Conditions: plain residues with an end cap or a label only (N-terminal biotin on a linker: ado-ado).
Set-up: key: below the threshold = too weak to quantify, mostly under pKd 3.1 to 4

Row | Binder | pKd
33 | AEDEEIQTKM [UNC93A, Q86WB7] | below the threshold
34 | SVISRREWYV [NECTIN3, Q9NQS3] | 4.48

What follows are binders tested against T9, NHERF3_1, Q5T2W1 (assay: holdup assay). Conditions: plain residues with an end cap or a label only (N-terminal biotin on a linker: ado-ado).
Set-up: key: below the threshold = too weak to quantify, mostly under pKd 3.1 to 4

Row | Binder | pKd
35 | AEDEEIQTKM [UNC93A, Q86WB7] | 5.39
36 | SVISRREWYV [NECTIN3, Q9NQS3] | 4.52

What follows are binders tested against NHERF4_2, Q86UT5 (assay: holdup assay). Conditions: plain residues with an end cap or a label only (N-terminal biotin on a linker: ado-ado).
Chain of NHERF4_2, Q86UT5 (Q86UT5 220-308): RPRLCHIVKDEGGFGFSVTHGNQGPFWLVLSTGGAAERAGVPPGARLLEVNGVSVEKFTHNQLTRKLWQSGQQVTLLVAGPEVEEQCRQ
Set-up: key: below the threshold = too weak to quantify, mostly under pKd 3.1 to 4

Row | Binder | pKd
37 | AEDEEIQTKM [UNC93A, Q86WB7] | below the threshold
38 | SVISRREWYV [NECTIN3, Q9NQS3] | below the threshold

These binders were tested against NOS1, P29475 (assay: holdup assay). Conditions: plain residues with an end cap or a label only (N-terminal biotin on a linker: ado-ado).
Chain of NOS1, P29475 (P29475 9-101): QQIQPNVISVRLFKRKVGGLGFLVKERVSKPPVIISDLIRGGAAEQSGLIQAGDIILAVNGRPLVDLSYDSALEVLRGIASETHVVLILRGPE
Set-up: key: below the threshold = too weak to quantify, mostly under pKd 3.1 to 4

Row | Binder | pKd
39 | AEDEEIQTKM [UNC93A, Q86WB7] | below the threshold
40 | SVISRREWYV [NECTIN3, Q9NQS3] | 4.04

What follows are binders tested against T10, PCLO, Q9Y6V0 (assay: holdup assay). Conditions: plain residues with an end cap or a label only (N-terminal biotin on a linker: ado-ado).
Set-up: key: below the threshold = too weak to quantify, mostly under pKd 3.1 to 4

Row | Binder | pKd
41 | AEDEEIQTKM [UNC93A, Q86WB7] | below the threshold
42 | SVISRREWYV [NECTIN3, Q9NQS3] | below the threshold

What follows are binders tested against PICK1, Q9NRD5 (assay: holdup assay). Conditions: plain residues with an end cap or a label only (N-terminal biotin on a linker: ado-ado).
Chain of PICK1, Q9NRD5 (Q9NRD5 17-115): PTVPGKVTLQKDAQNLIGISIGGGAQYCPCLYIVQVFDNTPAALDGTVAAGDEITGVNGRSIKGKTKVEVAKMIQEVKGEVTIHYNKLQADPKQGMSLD
Set-up: key: below the threshold = too weak to quantify, mostly under pKd 3.1 to 4

Row | Binder | pKd
43 | AEDEEIQTKM [UNC93A, Q86WB7] | 4.11
44 | SVISRREWYV [NECTIN3, Q9NQS3] | below the threshold

What follows are binders tested against T11, SNTA1, Q13424 (assay: holdup assay). Conditions: plain residues with an end cap or a label only (N-terminal biotin on a linker: ado-ado).
Set-up: key: below the threshold = too weak to quantify, mostly under pKd 3.1 to 4

Row | Binder | pKd
45 | AEDEEIQTKM [UNC93A, Q86WB7] | below the threshold
46 | SVISRREWYV [NECTIN3, Q9NQS3] | 3.48

These binders were tested against T12, TIAM2, Q8IVF5 (assay: holdup assay). Conditions: plain residues with an end cap or a label only (N-terminal biotin on a linker: ado-ado).
Set-up: key: below the threshold = too weak to quantify, mostly under pKd 3.1 to 4

Row | Binder | pKd
47 | AEDEEIQTKM [UNC93A, Q86WB7] | below the threshold
48 | SVISRREWYV [NECTIN3, Q9NQS3] | 5.1

What follows are binders tested against T13, TJP3_3, O95049 (assay: holdup assay). Conditions: plain residues with an end cap or a label only (N-terminal biotin on a linker: ado-ado).
Set-up: key: below the threshold = too weak to quantify, mostly under pKd 3.1 to 4

Row | Binder | pKd
49 | AEDEEIQTKM [UNC93A, Q86WB7] | below the threshold
50 | SVISRREWYV [NECTIN3, Q9NQS3] | 4.39
